Source: the array DNA melting data of Ke et al.

assay: melting temperature; melt of duplexes; details: sodium 0.0675 M; strand 1 µM

Compared with “CGACGTGCTTCATGTGCTG+CAGCACATTACGCACGTCG ((((((((.(.((((((((+)))))))).).))))))))”, “CGACGTGCATGATGTGCTG+CAGCACATTGCGCACGTCG ((((((((...((((((((+))))))))...))))))))” is higher in Tm: 47.8 °C for the first, 49.1 °C for the second.

First: CGACGTGCCACATGTGCTG+CAGCACATAAAGCACGTCG ((((((((...((((((((+))))))))...))))))))
Second: CGACGTGCGCAATGTGCTG+CAGCACATTGTGCACGTCG ((((((((.((((((((((+)))))))))).))))))))
The Tm of the first is lower: 49.1 °C for the first, 59.9 °C for the second.

First: CGACGTGCAGGATGTGCTG+CAGCACATTTAGCACGTCG ((((((((...((((((((+))))))))...))))))))
Second: CGACGTGCACAATGTGCTG+CAGCACATTATGCACGTCG (((((((((.(((((((((+))))))))).)))))))))
The Tm of the first is lower: 50.3 °C for the first, 52.8 °C for the second.

Going from “CGACGTGCAGGATGTGCTG+CAGCACATGCGGCACGTCG ((((((((.(.((((((((+)))))))).).))))))))” to “CGACGTGCGAAATGTGCTG+CAGCACATTATGCACGTCG ((((((((..(((((((((+)))))))))..))))))))”, the Tm falls from 55.3 °C to 53.6 °C.

First: CGACGTGCCAAATGTGCTG+CAGCACATACGGCACGTCG (((((((((..((((((((+))))))))..)))))))))
Second: CGACGTGCAATATGTGCTG+CAGCACATTTAGCACGTCG ((((((((.(.((((((((+)))))))).).))))))))
The Tm of the first is higher: 53.2 °C for the first, 50.8 °C for the second.

First: CGACGTGCGACATGTGCTG+CAGCACATTATGCACGTCG ((((((((...((((((((+))))))))...))))))))
Second: CGACGTGCTTAATGTGCTG+CAGCACATTTCGCACGTCG ((((((((..(((((((((+)))))))))..))))))))
The Tm of the first is lower: 50.1 °C for the first, 51 °C for the second.

First: CGACGTGCCACATGTGCTG+CAGCACATAGGGCACGTCG (((((((((..((((((((+))))))))..)))))))))
Second: CGACGTGCGTAATGTGCTG+CAGCACATCCTGCACGTCG ((((((((...((((((((+))))))))...))))))))
The Tm of the first is higher: 54.7 °C for the first, 49.7 °C for the second.

First: CGACGTGCCTGATGTGCTG+CAGCACATTTAGCACGTCG ((((((((...((((((((+))))))))...))))))))
Second: CGACGTGCCGGATGTGCTG+CAGCACATGCGGCACGTCG ((((((((((.((((((((+)))))))).))))))))))
The Tm of the first is lower: 49.6 °C for the first, 62.6 °C for the second.

Going from “CGACGTGCTGTATGTGCTG+CAGCACATGACGCACGTCG ((((((((...((((((((+))))))))...))))))))” to “CGACGTGCCCTATGTGCTG+CAGCACATACCGCACGTCG ((((((((..(((((((((+)))))))))..))))))))”, the Tm falls from 47.9 °C to 47.4 °C.

First: CGACGTGCAACATGTGCTG+CAGCACATGACGCACGTCG ((((((((..(((((((((+)))))))))..))))))))
Second: CGACGTGCTTAATGTGCTG+CAGCACATCTTGCACGTCG ((((((((...((((((((+))))))))...))))))))
The Tm of the first is higher: 50.9 °C for the first, 48.9 °C for the second.

Going from “CGACGTGCCTAATGTGCTG+CAGCACATTGAGCACGTCG ((((((((..(((((((((+)))))))))..))))))))” to “CGACGTGCTCCATGTGCTG+CAGCACATCTAGCACGTCG (((((((((..((((((((+))))))))..)))))))))”, the Tm falls from 52.7 °C to 49.5 °C.

Going from “CGACGTGCGGTATGTGCTG+CAGCACATGACGCACGTCG (((((((((..((((((((+))))))))..)))))))))” to “CGACGTGCTGCATGTGCTG+CAGCACATAGCGCACGTCG ((((((((...((((((((+))))))))...))))))))”, the Tm falls from 56.6 °C to 54.2 °C.

Going from “CGACGTGCTCTATGTGCTG+CAGCACATGCCGCACGTCG ((((((((...((((((((+))))))))...))))))))” to “CGACGTGCACTATGTGCTG+CAGCACATCTTGCACGTCG (((((((((..((((((((+))))))))..)))))))))”, the Tm falls from 48.2 °C to 46.5 °C.

“CGACGTGCCACATGTGCTG+CAGCACATTCCGCACGTCG ((((((((...((((((((+))))))))...))))))))” and “CGACGTGCCTCATGTGCTG+CAGCACATTCTGCACGTCG ((((((((...((((((((+))))))))...))))))))” are the same in Tm: 47.1 °C for the first, 47.1 °C for the second.

Going from “CGACGTGCAGGATGTGCTG+CAGCACATTCGGCACGTCG ((((((((.(.((((((((+)))))))).).))))))))” to “CGACGTGCCAGATGTGCTG+CAGCACATGTGGCACGTCG ((((((((((.((((((((+)))))))).))))))))))”, the Tm rises from 56.2 °C to 60 °C.

Compared with “CGACGTGCCTAATGTGCTG+CAGCACATTAAGCACGTCG ((((((((.((((((((((+)))))))))).))))))))”, “CGACGTGCACCATGTGCTG+CAGCACATCTCGCACGTCG ((((((((...((((((((+))))))))...))))))))” is lower in Tm: 53.4 °C for the first, 41.8 °C for the second.

First: CGACGTGCTCCATGTGCTG+CAGCACATGGTGCACGTCG ((((((((.((((((((((+)))))))))).))))))))
Second: CGACGTGCTTTATGTGCTG+CAGCACATGAGGCACGTCG ((((((((.(.((((((((+)))))))).).))))))))
The Tm of the first is higher: 58.9 °C for the first, 52.8 °C for the second.

Compared with “CGACGTGCCTTATGTGCTG+CAGCACATGATGCACGTCG ((((((((.(.((((((((+)))))))).).))))))))”, “CGACGTGCCTCATGTGCTG+CAGCACATTAGGCACGTCG ((((((((((.((((((((+)))))))).))))))))))” is higher in Tm: 50.1 °C for the first, 56.3 °C for the second.

Going from “CGACGTGCGGGATGTGCTG+CAGCACATCCCGCACGTCG (((((((((((((((((((+)))))))))))))))))))” to “CGACGTGCAGAATGTGCTG+CAGCACATCGAGCACGTCG ((((((((...((((((((+))))))))...))))))))”, the Tm falls from 67.7 °C to 50.3 °C.

Going from “CGACGTGCTGCATGTGCTG+CAGCACATACCGCACGTCG ((((((((.(.((((((((+)))))))).).))))))))” to “CGACGTGCCAGATGTGCTG+CAGCACATGATGCACGTCG ((((((((...((((((((+))))))))...))))))))”, the Tm falls from 50.7 °C to 49.4 °C.

First: CGACGTGCGAAATGTGCTG+CAGCACATAGTGCACGTCG ((((((((...((((((((+))))))))...))))))))
Second: CGACGTGCTCAATGTGCTG+CAGCACATCCAGCACGTCG (((((((((..((((((((+))))))))..)))))))))
The Tm of the first is lower: 46 °C for the first, 50.5 °C for the second.

First: CGACGTGCCCGATGTGCTG+CAGCACATAAGGCACGTCG (((((((((..((((((((+))))))))..)))))))))
Second: CGACGTGCGTTATGTGCTG+CAGCACATAAAGCACGTCG ((((((((.((((((((((+)))))))))).))))))))
The Tm of the first is lower: 54.5 °C for the first, 56 °C for the second.

Going from “CGACGTGCACGATGTGCTG+CAGCACATGAGGCACGTCG ((((((((...((((((((+))))))))...))))))))” to “CGACGTGCTCCATGTGCTG+CAGCACATTTGGCACGTCG ((((((((...((((((((+))))))))...))))))))”, the Tm falls from 48.4 °C to 48.3 °C.

First: CGACGTGCCCGATGTGCTG+CAGCACATACCGCACGTCG ((((((((...((((((((+))))))))...))))))))
Second: CGACGTGCCGGATGTGCTG+CAGCACATAGCGCACGTCG ((((((((...((((((((+))))))))...))))))))
The Tm of the first is lower: 47.7 °C for the first, 49.9 °C for the second.

First: CGACGTGCTTCATGTGCTG+CAGCACATCCGGCACGTCG ((((((((...((((((((+))))))))...))))))))
Second: CGACGTGCTGTATGTGCTG+CAGCACATCTCGCACGTCG ((((((((...((((((((+))))))))...))))))))
The Tm of the first is lower: 47.8 °C for the first, 48.9 °C for the second.

Compared with “CGACGTGCACCATGTGCTG+CAGCACATTAAGCACGTCG ((((((((...((((((((+))))))))...))))))))”, “CGACGTGCTTTATGTGCTG+CAGCACATGTCGCACGTCG ((((((((...((((((((+))))))))...))))))))” is higher in Tm: 43.9 °C for the first, 47.8 °C for the second.
